Laboratory results published in PMC3162016.

How the values were obtained:
[1] = biological target: G-Ara h 2/6 (native Ara h 2/6 heated for 15 min to 110°C in the presence of 100 mM glucose); assay: SEC; Superdex-75 column on an Äkta Basic FPLC, calibrated with gel filtration molecular weight standards; Ara h 2/6 before and after heating for 15 min at 110°C in the presence or absence of glucose
[2] = biological target: H-Ara h 2/6 (native Ara h 2/6 heated for 15 min to 110°C alone); assay: as above

Row | percent of the protein remaining monomeric [1] [%] | percent of the protein remaining monomeric [2] [%] | Substance
1 | 20 |  | G-Ara h 2/6 (native Ara h 2/6 heated for 15 min to 110°C in the presence of 100 mM glucose)
2 |  | 20 | H-Ara h 2/6 (native Ara h 2/6 heated for 15 min to 110°C alone)
